Laboratory results as given in the nanobody polyreactivity screen of Harvey et al. (2022).

Test: yeast display, Sf9 membrane polyspecificity reagent, FACS + sequencing; frameworks hold sequencing errors
In short: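 After 36–48 hours of galactose induction, yeast (Saccharomyces cerevisiae BJ5465) displaying a synthetic nanobody library were stained at 4 °C for 1 hour with 10% biotinylated, detergent-solubilized Sf9 membrane reagent. Streptavidin microbeads enriched the stained cells before FACS sorting into low and high (top ~1%) gates on anti-HA and streptavidin fluorescence. Each clone's polyreactivity label reflects its gate of origin.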

For “QVQLVESGGGLVQAGCSLRISCAASGFIFKRNAMGWYRQAPGKERELVAAITWRGGSTYYADSVKGRFTISRDTAKNTVYLQMNSLKPEDTAVYYCAADSYYPRGYRTGWSESAYVSWGQGTLVTVSS”, which “polyreactivity (PSR sort gate)” value is on record?
The value was “high polyreactivity”.

Which “polyreactivity (PSR sort gate)” value does the source give for “QVQLVESGGGLVQAGCSLRISCAASGSTFYINAMGWYRQAPGKERELVAAISRGGSTYYADSVKGRFTISRDNAKNTVYLQMNSLKPEDTAVYYCAADFSRSYRFNYWGQGTQVTVSS” here?
Its value is “high polyreactivity”.

For “QVQLVESGGGLVQAGCSLRLICAASGFIFRTYAMGWYRQAPGKESELVAAISRGGVRTYYADSVKGRFTISRDNAKNTVYLQMNSLKPEDTAVYYCAADDVHGIYDYWGQGTQVTVSS”, which “polyreactivity (PSR sort gate)” value is on record?
Its value is “high polyreactivity”.

With “QVQLVESGGGLVQAGCSLRLICAASRSTFTDNAMGWYRQAPGKESELVAAISTGTSTYADSVKGRFTISRDNATNTVYLQMNRLKPEDTAGYYCAADVGIRPLNYHPYNYWGQGTQVTVSS” as the sequence, how does the “polyreactivity (PSR sort gate)” value read?
The value was “low polyreactivity”.

With “QVQLVESGGGLVQAGCSLRLRCAASGRIYPYYAMGWYRQAPGKERELVAAIRGGGTSTRYADSVKGRFTISRDNAKKTVDLQMNSLKPSDTADYYCAAVWYSGSTRYSKYLEYYYWGQGTQVTVSS” as the sequence, how does the “polyreactivity (PSR sort gate)” value read?
The value was “high polyreactivity”.

With “QVQLVESGGGLVQAGCSLRLSCAACGFTFIPNAMGWYRQAPAKERELVAAISFGGGSTYYADSVKGRFTISRDNAKNTVYLQMNSMKPEETAVYYCAAEAFVSYEPYWYVRYYSSYNYWGQGTQVTVSS” as the sequence, how does the “polyreactivity (PSR sort gate)” value read?
Its value is “high polyreactivity”.

For “QVQLVESGGGLVQAGCSLRLSCAASGFTFSYYAMGSYRQAPGKERELVASISRSGNTYYADSVKGRFTISRDNAKNTVYLQMNSLKPEDTAVYYCAAKRKSYYSYNFDYWGQGTQVTVSS”, which “polyreactivity (PSR sort gate)” value is on record?
Its value is “high polyreactivity”.

With “QVQLVESGGGLVQAGCSLRLSCAASGIIFALNAMGWYRQAPGKERELVAAISDGDSTHYADSVKGRFTISRDNAKNTVYLQMNSLKPEDTAVYYCAVDNRDLFFYPGGFDYWGQGTQVTVSS” as the sequence, how does the “polyreactivity (PSR sort gate)” value read?
Its value is “low polyreactivity”.

With “QVQLVESGGGLVQAGCSLRLSCAASGITFRRYTMGWYRPAPGKERELVATISLSDGNTYYADSVKGRFTISRDNAKNTVYLQMNSLKPEDTAVYYCTADVRYGRDHWGQATQVTVSS” as the sequence, how does the “polyreactivity (PSR sort gate)” value read?
The value was “low polyreactivity”.

For “QVQLVESGGGLVQAGCSLRLSCAASGLTSTANAMGWYRQAPGKERELVAGITTGGSTYYADSVKGRFTISRDNAKNTVYLQMISLKPEDTAVYYCNAPTYADTTYDYWGQGTQVTVSS”, which “polyreactivity (PSR sort gate)” value is on record?
The value was “low polyreactivity”.

For “QVQLVESGGGLVQAGCSLRLSCAASGNIFYRYAKGRYRPAPGKERELVAGITWSGGSTYYADSVKGRFTISRDNAKNTVYLQMTSLKPEDTAVYYCGQANYYWGQGTQVTVSS”, which “polyreactivity (PSR sort gate)” value is on record?
Its value is “low polyreactivity”.

Which “polyreactivity (PSR sort gate)” value does the source give for “QVQLVESGGGLVQAGCSLRLSCAASGRIFDYYAMGWNRQAPGKERELVAAISYSGGSTHYADSVKGRFTISRDNAKNSVYLQMISLKPEDTAVYYCAGWAWSGVEYDYWGQGSQVTVSS” here?
The value was “low polyreactivity”.

Which “polyreactivity (PSR sort gate)” value does the source give for “QVQLVESGGGLVQAGCSLRLSCAASGRISKRYTMGWYRQAPGKERELVAAINSSTSTSYADSVKGRFTISRDNAKNTVYLKMNSRKPEDTAVYYCNARYNYSYDYNYWGQGTQVTVSS” here?
The value was “low polyreactivity”.

For “QVQLVESGGGLVQAGCSLRLSCAASGRTFDSYTMGWYRQAPGKERELVAAIRSSGGRTYADSVKGRFTISRDNAKNTVYLQMNSLKPEDTAVYYCDADRRGSHYYRYKYGYWGQGTQVTVSS”, which “polyreactivity (PSR sort gate)” value is on record?
Its value is “high polyreactivity”.

Which “polyreactivity (PSR sort gate)” value does the source give for “QVQLVESGGGLVQAGCSLRLSCAASGRTFRYYAMGWYRQAPGKERELVAAISGRGGSTYYADSVKGRFTISRDNAKNTVYFQMNSLKPEDTAVYYCADSFYSIRYDYWGQGTQVTVSS” here?
The value was “high polyreactivity”.

For “QVQLVESGGGLVQAGCSLRLSCAASGRTFYYYAMGWYRQAPGKERELVAAISKSGGSTYYADSVKGRFTISRDNAKNTVYLQMNSLKPEDTAVYYCAALTTHAPHSYNYWGQGTQVTVSS”, which “polyreactivity (PSR sort gate)” value is on record?
The value was “low polyreactivity”.

Which “polyreactivity (PSR sort gate)” value does the source give for “QVQLVESGGGLVQAGCSLRLSCAASGSIFFSYAMGWYRQAPGKEREFVAAINSDDASTYADSVKGRFTISRDNAKNTVYLQKNSLNPEDTAVYYCAASFLWSWYDYWGQGTHVTVSS” here?
Its value is “low polyreactivity”.

With “QVQLVESGGGLVQAGCSLRLSCAASGSIFGFYAMGWYRQAPGKERELVATIRSSGGNTYYADSVKGRFTISRDNAKNTVYLEMNSLKPEDTGVFYCAASFLIRAYVDRNDYWGLGTQVTVSS” as the sequence, how does the “polyreactivity (PSR sort gate)” value read?
Its value is “low polyreactivity”.

With “QVQLVESGGGLVQAGCSLRLSCAASGSIFSTYAMGWYRQAPGKERELVAAITSDGTYADSVKGRFTISRDNARNTVYLQMNSLKPEDTAVYYWAAYYPYTRHGDYWGQGTQVTVSS” as the sequence, how does the “polyreactivity (PSR sort gate)” value read?
Its value is “low polyreactivity”.

Which “polyreactivity (PSR sort gate)” value does the source give for “QVQLVESGGGLVQAGCSLRLSCAASGSIFTSYAMGWYRQAPGKERELVAAINRSSGTTYYAHSVKGRFTISRDTAKNTVYLQMNSLKREDTAVYYCAKEYGIYTDTPYYYWGQGTQVTVSS” here?
Its value is “low polyreactivity”.

With “QVQLVESGGGLVQAGCSLRLSCAASGSIFYFYGMGWYRQAPGKERELVASITYSGTSTYYADSVKGRFTISRDNAMITVYLQMNSLKPEDTAVYYCAASFYTVNSWYDSWGQGTQVTVSS” as the sequence, how does the “polyreactivity (PSR sort gate)” value read?
Its value is “low polyreactivity”.

For “QVQLVESGGGLVQAGCSLRLSCAASGSIIIGNAMGWYRKSPGKERELVAVINGSDGTTYYADSVKGRFTNSRDNAKNTVYLQMNSLKPEDTAVYYCNADFIDPSVYDYNYWGQGTQVTVSS”, which “polyreactivity (PSR sort gate)” value is on record?
Its value is “low polyreactivity”.

Which “polyreactivity (PSR sort gate)” value does the source give for “QVQLVESGGGLVQAGCSLRLSCAASGSISSFYAMGWYRQAPGKERELVAGITSGGSTNYADSVKGRFTISRDNAKNTVYLQMNSLKPEDTAVYYCAAVYKGAGTHFDVFVKEFDYWGLGTQVTVSS” here?
Its value is “low polyreactivity”.

With “QVQLVESGGGLVQAGCSLRLSCAASGSTFKRYAMGWYRQAPGKERELVASISSGGSTNYADSVKGRFTISRDNAKNTVYLQMNSLKPEDTAVYYCATRGHYRQTINYWGQGTQVSVSS” as the sequence, how does the “polyreactivity (PSR sort gate)” value read?
Its value is “high polyreactivity”.

For “QVQLVESGGGLVQAGCSLRLSCAASGSTFSPNAMGWYRQAPGKERELVASIRIGGRTNYADSVKGRFTISRDNAKNTVYLQMNSLKPEDTAVYYCARRHYYSRFTVSKLSRYDYWGQGTQVTVSS”, which “polyreactivity (PSR sort gate)” value is on record?
Its value is “high polyreactivity”.

Which “polyreactivity (PSR sort gate)” value does the source give for “QVQLVESGGGLVQAGCSLRLSCAASGSTLYTYAMGWYRQAPGKERELVATISWSGSSTYYADSVKGRFTISRDNAKNTVYLQMNSLKPEDTAVYYCAAQYHYWYRLDYWGQGTQVTVSS” here?
The value was “high polyreactivity”.

For “QVQLVESGGGLVQAGCSLRLSCAASGSTVYYKAMGWYREAPGKERELVAAITSGGRTKYADSVKGRFTISRDNAKNTVYLQMNSLKPEDTAVYYCNTYNRRSGTLPKPYDYWGQGTQVTVSS”, which “polyreactivity (PSR sort gate)” value is on record?
The value was “high polyreactivity”.

With “QVQLVESGGGLVQAGCSLRLSCAASGYIFYPYAMGWYRQAPGKERELVAAISGSGSGTYYADSVKGRFTISRDNAKNTVYLQMNSLKPEDTADYYCAKYVYDNVWMDYWGQGTQVTVSS” as the sequence, how does the “polyreactivity (PSR sort gate)” value read?
Its value is “high polyreactivity”.

For “QVQLVESGGGLVQAGCSLRLSCASSGLTFSFYAMGWYRQAPGKERELVAAISKGGGSTSYADSVKGRFTISRDNAKNTVYLQMNSLKPEDTAVYYCAARYYYSRSRLYYYWGQVTQVTVSS”, which “polyreactivity (PSR sort gate)” value is on record?
Its value is “high polyreactivity”.

Which “polyreactivity (PSR sort gate)” value does the source give for “QVQLVESGGGLVQAGCSLRLSCSASGLTFYANAMGWYRQAPGKERELVAAISKSGGNTYYAYSVKGRFTISRDNAKNTVYLQMNSLKPEDTAVYYCAVGYPRGYVDVDSWGQGTQVTVSS” here?
The value was “high polyreactivity”.

With “QVQLVESGGGLVQAGDSLRLSCAASGFIFYYYTMGWYRQAPGKEREFVAAITYSGGRTYYADSVKGRFTISRDNAKNTVYLQMNSLKPQDTAVYYCADVPRYGPSSRMDYWGQGTQVTVSS” as the sequence, how does the “polyreactivity (PSR sort gate)” value read?
The value was “high polyreactivity”.

With “QVQLVESGGGLVQAGGCLRISCAASGSTFPNYAMGWYREAPGKERELVARISYNVGRTYYADSVKGRFTISRDNAKNTVYLQMNSLKPEDTAVYYCAAGVGWRYRVRWYYSLGDYWGQGTQVTVSS” as the sequence, how does the “polyreactivity (PSR sort gate)” value read?
The value was “high polyreactivity”.

Which “polyreactivity (PSR sort gate)” value does the source give for “QVQLVESGGGLVQAGGCLRLSCAASGSIFDHYVMGWYREAPGKERELVAAISSGDRPNYADSVKGRFTISRDNAKNPVYLQMNSLKPEETAVYYCAAVVHVSPYSYDYWGQGTQVTVSA” here?
The value was “low polyreactivity”.

With “QVQLVESGGGLVQAGGCLRLSCASSGRTFHLYAMGWYRQAPGKERELVAAITWSSGRTYYSDSVKGRFTISRDNAKNTVYVQMKSLKPEDTAVFYCAADVWGGLLPGYDYWGQGTQVTVSS” as the sequence, how does the “polyreactivity (PSR sort gate)” value read?
Its value is “high polyreactivity”.

With “QVQLVESGGGLVQAGGCLRLSCDASGFTFAFYAMGWYRQAPGKEIELVAAISRRGGSTTYADSVKGRFTISRDNAKNTVYLQMHSLKPEDTAVYYCNAVSTRNPGPDSYYWGQGTQVTVSS” as the sequence, how does the “polyreactivity (PSR sort gate)” value read?
Its value is “high polyreactivity”.

With “QVQLVESGGGLVQAGGGLRLSCAASGFIFSLYAMGWYRQAPGKERELVAAISKRGGSTNYADSLKGRFTISRDNAKNTVYLQRNSLKPDVTAVYYCAATRNYYGRYDYWGQGTQVTVSS” as the sequence, how does the “polyreactivity (PSR sort gate)” value read?
Its value is “high polyreactivity”.

With “QVQLVESGGGLVQAGGGLRLSCAASGFTFYLYVMGWYRQAPGKERELVARISRSGGTTYYADSVKGRFTISRDNAKNTVYLQMNSLKPEDTAVYYCAARRYGVPPTYDYCGQGTQVTVSS” as the sequence, how does the “polyreactivity (PSR sort gate)” value read?
The value was “high polyreactivity”.

Which “polyreactivity (PSR sort gate)” value does the source give for “QVQLVESGGGLVQAGGIIRLSCAASGLIFSRYAMGWYRQAPGKETELVAAITQSGTSTYYADSVKGRFTISRDNANNTVYLQMTILKPEDTAVYYCNAYPQYRYDYWGQGTQVTVSS” here?
The value was “low polyreactivity”.

For “QVQLVESGGGLVQAGGILRLICAASGRIFGPYAMGWYRQAPGKERELVADITGGGTYYADSVKGRFTISRDNAKNTVYLQMFSLKPEDTSVYYCAADYSSYTSFRYDYWGQGTHVTVSS”, which “polyreactivity (PSR sort gate)” value is on record?
The value was “low polyreactivity”.

For “QVQLVESGGGLVQAGGILRLICAASGSIFGKYTMGWYRHAPGKERELVAGITYRAGSTYYADSVKGRFTISRDNAKNTVYLQMNSLKPEDTAVYYCAARFYFRWYYYGSYANYWGQGTQVTVSS”, which “polyreactivity (PSR sort gate)” value is on record?
Its value is “high polyreactivity”.

Which “polyreactivity (PSR sort gate)” value does the source give for “QVQLVESGGGLVQAGGILRLICAAYGRILAYNSMGWYRQAPGKQRELVAGISWSGGSTYYADSVKGRFTISRDNAKNTVYLQMNSLKPEDTAVYYCAKTPYYRYAKQRYTSSHDYWGQGTQVTVSS” here?
The value was “high polyreactivity”.

Which “polyreactivity (PSR sort gate)” value does the source give for “QVQLVESGGGLVQAGGILRLICADSGSTFAQYAMGWYRPAPGKERELVAAISRLGASTYYAYSVKGRFTISRDIAKNTVYLQMNSLKPEDTVVYYCNAVRGEKMGYWGQGTQVTVSS” here?
The value was “high polyreactivity”.

Which “polyreactivity (PSR sort gate)” value does the source give for “QVQLVESGGGLVQAGGILRLNCAASGFIFRRYAMGWSRQAPGKERELVAAISSGGTSTYYADSVKGRFTISRDNAKYTVYLQKNSLKPEDTAVSYCNVDTDPYYWGGDYYWGQGTQVTVSS” here?
Its value is “high polyreactivity”.
